4 molecules from paper PMC11229320, “Dynamics of the Herpes simplex virus DNA polymerase holoenzyme during DNA synthesis and proof-reading revealed by Cryo-EM” can be followed below.

The target of data set [1] is T1, UL30 DNA polymerase catalytic subunit;UL42 processivity factor (Herpes simplex virus 1 (HHV-1);Herpes …, UniProt P04293;P10226 1-1235;1-488, |). Nature of the data set: cryo-EM; pre-translocation state, open fingers; 2.4 A; Cryo-EM complex buffer not given in material; protein purified in 20 mM HEPES pH 7.8, 400 mM NaCl, 1.5 mM MgCl2, 1 mM DTT, 5% glycerol. The following applies: protein: recombinant;recombinant; copies: 1;1; 5' overhang 26 nt on template (22 bp).

The target of data set [2] is T1, UL30 DNA polymerase catalytic …. Nature of the data set: cryo-EM; DNA editing (exonuclease) state; also 8OJB, 8OJC (active site classes), 8OJD (beta-hairpin loop); Cryo-EM complex buffer not given in material; protein purified in 20 mM HEPES pH 7.8, 400 mM NaCl, 1.5 mM MgCl2, 1 mM DTT, 5% glycerol. The following applies: protein: recombinant;recombinant; copies: 1;1; 5' overhang 21 nt on template; 2 mismatches (A/G) at primer 3' end.

Data set [3] shares this target. Description: cryo-EM; halted elongation state, dATP in dNTP pocket; 1 mM dATP/dGTP/dTTP/ddCTP mix; Cryo-EM complex buffer not given in material; protein purified in 20 mM HEPES pH 7.8, 400 mM NaCl, 1.5 mM MgCl2, 1 mM DTT, 5% glycerol. The following applies: protein: recombinant;recombinant; copies: 1;1; 5' overhang 14 nt on template after extension (22 nt before).
The target is the same in data set [4]. Description: cryo-EM; DNA editing (exonuclease) state; also 9ENQ (active site); Cryo-EM complex buffer not given in material; protein purified in 20 mM HEPES pH 7.8, 400 mM NaCl, 1.5 mM MgCl2, 1 mM DTT, 5% glycerol. The following applies: protein: recombinant;recombinant; copies: 1;1; 5' overhang 21 nt on template; 1 mismatch (A/G) at primer 3' end.

T1 sequence (P04293 whole entry, chain 1 of 2): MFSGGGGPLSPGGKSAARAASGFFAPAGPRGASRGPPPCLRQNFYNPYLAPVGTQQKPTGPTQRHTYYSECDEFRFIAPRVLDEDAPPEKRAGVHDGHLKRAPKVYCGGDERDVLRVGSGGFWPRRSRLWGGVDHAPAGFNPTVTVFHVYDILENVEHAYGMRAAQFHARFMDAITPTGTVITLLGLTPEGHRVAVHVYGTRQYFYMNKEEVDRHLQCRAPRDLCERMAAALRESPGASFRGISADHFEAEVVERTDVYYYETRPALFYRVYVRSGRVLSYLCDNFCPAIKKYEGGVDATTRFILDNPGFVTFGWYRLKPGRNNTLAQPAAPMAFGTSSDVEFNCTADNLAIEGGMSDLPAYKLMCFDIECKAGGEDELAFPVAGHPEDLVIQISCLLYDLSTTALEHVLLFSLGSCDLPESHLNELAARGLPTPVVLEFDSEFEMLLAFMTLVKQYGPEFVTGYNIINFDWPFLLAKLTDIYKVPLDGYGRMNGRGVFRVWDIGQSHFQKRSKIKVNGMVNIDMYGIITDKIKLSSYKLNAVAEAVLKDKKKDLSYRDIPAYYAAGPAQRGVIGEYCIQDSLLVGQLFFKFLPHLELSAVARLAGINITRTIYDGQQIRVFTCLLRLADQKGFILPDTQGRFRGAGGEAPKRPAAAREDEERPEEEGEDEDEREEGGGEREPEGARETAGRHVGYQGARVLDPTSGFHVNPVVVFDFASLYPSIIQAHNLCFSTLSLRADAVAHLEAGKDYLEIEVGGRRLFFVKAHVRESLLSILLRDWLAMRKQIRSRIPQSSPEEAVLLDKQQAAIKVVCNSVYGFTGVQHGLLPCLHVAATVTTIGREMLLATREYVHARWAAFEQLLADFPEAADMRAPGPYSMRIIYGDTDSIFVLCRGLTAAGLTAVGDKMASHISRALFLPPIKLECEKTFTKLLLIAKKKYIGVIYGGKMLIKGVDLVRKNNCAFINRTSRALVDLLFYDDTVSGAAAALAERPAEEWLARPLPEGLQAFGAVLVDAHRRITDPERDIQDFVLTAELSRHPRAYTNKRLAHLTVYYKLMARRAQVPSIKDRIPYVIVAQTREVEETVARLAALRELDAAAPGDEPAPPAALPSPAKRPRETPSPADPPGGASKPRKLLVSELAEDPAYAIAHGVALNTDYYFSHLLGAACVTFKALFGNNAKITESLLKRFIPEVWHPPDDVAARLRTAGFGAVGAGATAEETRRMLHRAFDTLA
T1 sequence (P10226 whole entry, chain 2 of 2): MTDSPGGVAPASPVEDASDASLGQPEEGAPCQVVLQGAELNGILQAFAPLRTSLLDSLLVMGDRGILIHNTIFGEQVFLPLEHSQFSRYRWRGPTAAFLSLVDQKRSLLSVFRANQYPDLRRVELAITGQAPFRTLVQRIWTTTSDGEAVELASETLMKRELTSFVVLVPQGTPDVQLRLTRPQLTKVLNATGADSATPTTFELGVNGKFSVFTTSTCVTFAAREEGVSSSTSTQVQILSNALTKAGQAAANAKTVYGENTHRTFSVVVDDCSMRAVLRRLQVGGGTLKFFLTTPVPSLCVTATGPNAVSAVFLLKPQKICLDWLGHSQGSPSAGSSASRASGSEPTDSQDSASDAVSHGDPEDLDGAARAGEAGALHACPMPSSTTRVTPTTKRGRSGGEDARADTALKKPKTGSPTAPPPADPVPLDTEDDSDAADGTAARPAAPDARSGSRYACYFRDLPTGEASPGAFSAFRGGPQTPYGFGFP

B1: pre-translocation primer-template (dsDNA)
DNA 1: CGAAAGTACGTTATTGCGACTGGCCGTCGCTCTACAACGTCGTGACTG
DNA 2: CAGTCACGACGTTGTAGAGCGA
B1: in data set [1], the binding result is recorded as “binds”.

B2: 2-bp mismatch exonuclease primer-template (dsDNA)
DNA 1: ATTTGCTGACCTTTGTTCTGGGGTGAGTTGGTTGGACGGCTGCGAGGCGATCAAGGTGTCGTAGTGGC
DNA 2: GCCACTACGACACCTTGATCGCCTCGCAGCCGTCCAACCAACTCAAA
modifications: * before each of the last two A of primer (phosphorothioate?; not defined in material)
B2: in data set [2], the binding result is given as “binds”.

B3: halted elongation primer-template (ddC-terminated) (dsDNA)
DNA 1: ATTTGCTGACCTTTGTTCTAATTGAGTTGGTTGGACGGCTGCGAGGCGATCAAGGTGTCGTAGTGGC
DNA 2: GCCACTACGACACCTTGATCGCCTCGCAGCCGTCCAACCAACTCAATTAGAAC
modifications: 3'-terminal ddC on primer, added in situ: printed primer S5 extended with dATP, dGTP, dTTP, ddCTP to first template G
As for B3, in data set [3], the binding result was “binds”.

B4: 1-bp mismatch exonuclease primer-template (dsDNA)
DNA 1: ATTTGCTGACCTTTGTTCTGGGTGAGTTGGTTGGACGGCTGCGAGGCGATCAAGGTGTCGTAGTGGC
DNA 2: GCCACTACGACACCTTGATCGCCTCGCAGCCGTCCAACCAACTCAA
modifications: * before each of the last two A of primer (phosphorothioate?; not defined in material)
In the case of B4, in data set [4], the binding result was “binds”.
